The values that follow come from a protein production outcome set (Wang et al. 2014).

This data set is described as follows: label from the status in PepcDB records.
For the sequence “MNMQKCDSTQEQQLTFEPRGHQLTNINVWTPDSQWLAYDVRPNSSTFSGLTIERVNCITGDIEVIYRSQHGAHVGVVTVSPDMPARYVFIHGPEHPDNHWHYDFHHRRGVIVTEPDRELAVTLDAMDITPPFTPGALRGGSHVHVFSPDGSRLSFTYNDHVLHEQDPALDCRNVAVALPLHGVNPPKQHPREYDGSHFCVLVTRTTPTPLAGSDQISRAYEEGWIGSQGYLKMDGTRQRWALAFIGDTLSAQGEKIPEIFIADLPEHERDYARAGEEPLEGTQTTMPAPPAGVRQRRLTFTAERHFPGLATSPRHWLRTSPDGSAIACLMKDDEGVVQLWLVSPNGGEPRQLTFTEGGIQSAFSWHPQGHSLVFVCDNSVMQCDSTTGQLWRLTARSAIAPMADAVVFSPDGTKVAFMREIDGLAQIFTVKVD”, the protein production result is reported as “failed”.

For the sequence “GLTTLIEMIETLSATRTINEVADVVRGAARRILDADGVAFVMRDKDLCWYVDEDAIGPLWKGKRFPMDQCVAGRVMKSGRVVVCPDIYADPDMPHDAYRPTFVKSLAIAPVRPRDPIAAIAVYWARPYDPPPEVLRKLQVVARATASALESGRLNDYLAASLEHGHFLLRELD”, the protein production entry is given as “failed”. “MSLTTFLFRNGALLDPDHPDLLQGFEILIEDGFIREVSDKPIKSSNAHVIDVKGKTIMPGLIDLHVHVVAIEFNLPRVATLPNVLVTLRAVPIMRAMLRRGFTTVRDAGGAGYPFKQAVESGLVEGPRLFVSGRALSQTGGHADPRARSDYMPPDSPCGCCVRVGALGRVADGVDEVRRAVREELQMGADQIKIMASGGVASPTDPVGVFGYSEDEIRAIVAEAQGRGTYVLAHAYTPAAIARAVRCGVRTIEHGNLIDDETARLVAEHGAYVVPTLVTYDALASEGEKYGLPPESIAKIADVHGAGLHSIEIMKRAGVKMGFGTDLLGEAQRLQSDEFRILAEVLSPAEVIASATIVSAEVLGMQDKLGRIVPGAHADVLVVDGNPLKSVDCLLGQGEHIPLVMKDGRLFVNELEGHEGHHHHHH”: the protein production result is “not failed”.

Consider “MTFCYVNAYQGGYILYNKGTKSKEVAKMSTKKVYSFLSQAFIFSAIMLISNIIATHLPIPMPSSVIGLVILFSLLCLKVIKLEQVESLGTALTGIIGFLFVPSGISVINSLGVMGQYFVQILTVIVVATVILLAVTGLFAQFILGKDEKETEDTKELKVVNKGRKHGKVA”, for which the protein production entry is “failed”.

Regarding “MEDQCIISHLAGIFSGVLATDFLRYAVGAGGVYLTVNLALAARLRARKIRAYEPPKGQIGREILASLRTVLIFALNGTLIVVGAEAGLVPIYREIATHGWAYLFFSTTVLIVAHDTWFYWSHRLLHYPPIFRRFHRLHHKSHNPTPFTSYSFDLGEAVVNAIYLPLILLVLPAHPVAILVFVTHMMLRNAIGHSGYEIFPANRRGKPLFDWITTVTHHDLHHAHAGYNLGLYFTWWDRLMGTEHPDYHEAFQKVAKPASWPSVRAVILAFAIFTGIAVSDARAERLSGAYASPGFGVIVRFEPCNANPGLTCGRMIWAWDAAEVPHAQSGDVIVIDLHGDGNVWSGRLKNPENGRMYRGSVVQRSPDTIVLRGCAGPFCTSQIWHSVRALRRALESAE”, the protein production entry is reported as “failed”.

“MKMDTGALTFQQKIYWLVKQIPLGRVATYGQIAALCGWPRHGRYVGYALYRVAPNSDIPWHRVVNAQGKISYAPQRRGTDELQRWRLAAEGIIFTAGDRINLRRYQWQPPATVYQQLIWPEGAATDSAKAKVG”: the protein production result is “failed”. Regarding “MDPYFELRLSELKSIPVVTWLQFSIDNAREPGILVQSGQIWALLPPELTEKTRCFAIELGNECMRLKDYDNDDGKRVWLSDDELTRFIEQAETPHQRLAFLLAGRVGLRRSEIIEVCPQDLVDGPTGDHIRVWESYAKRDKYREPPVPQEVVTIAETLAYQQDDDEPLLDVAGSTVYRWVRRAADELEEETGDRGWQYLDVHDLRRTWGTYLLEQGVIPSVVMSFGGWEDWDTFRKHYLGEFSPEAIRRERGKVDFLEGGDESAEVVHPGTMPPASHHTAD”, the protein production entry is given as “failed”. Consider “ALKQKIIGNGEKRVVTYAPTWREDDFISVGHYHFRWHFSLKKMMGLLPEDVMLLIRPHYLVTDRIDIKGFEDRVVIDSTTDMNEIYLITDLMVTDYSSVMFDFAILKRPMLFFAYDLEYYRDDLRGFYFDYYTELPGSIVTDETHLLAEIDQLLQNNFAELDPERFNKFAKRFVSWERGTAAQQVIEKINY”, for which the protein production result is on record as “not failed”.

Take “MLHLLTLSSLGRDLFNIKMLIVILITIGLITLMTILTYLLEQQVHRRQNRYWTIGAHGAEALSVLISMILLRQIFITLNSGSIISWTYATVQLTILLFSLNTMRNLAVEIINLLMPLFIYGQAIWLGHSTQYLPVFLAMAIILISTVVYITHNYQELHATQWKYLLFQILYSGTWWGVIWSVHPFKLSHTLVIILAFVLYMWLIRLAVNRVQKFFNEVLTFDQQVNYDELTGIRNRASFDTHAREVFAAYQHHQMGPVTMVMFDIDHFKAFNDQYGHLAGDAVLRHVAHFVELELNQRSTHGQIFRYGGEEFVIIFRGISALEAGQIMRTIQRKLKTVPIKFNVQTLNVTVSIGISELQPTDQTFTDWFVRVDDYLYQSKQAGRDQTTVESQLLTD”: the protein production entry is given as “failed”. Take “MTTATAGLAVELKQSTAQAHEKAEHSTFMSDLLKGRLGVAEFTRLQEQAWLFYTALEQAVDAVRASGFAESLLDPALNRAEVLARDLDKLNGSSEWRSRITASPAVIDYVNRLEEIRDNVDGPALVAHHYVRYLGDLSGGQVIARMMQRHYGVDPEALGFYHFEGIAKLKVYKDEYREKLNNLELSDEQREHLLKEATDAFVFNHQVFADLGKGL”: the protein production entry is “not failed”. The entry for “MDNKVILVGGFHEIIELCEDNDIEIAGIIDNYLTNDTYWGYPIIGTDDKAKVLFETYKNVPVLITPDVPHVRYKLYHYYKSIGFQVASLISRDASISRSAIIGEGTIIQRGANLSSNIKIGQMVKVNTNANIMHDCLIGNYVTVAPNAVLLGKVEIDDKAYIGANATLLPSVKIGENVTVGAGSVVTKSVRLEHHHHHH” is “failed”; for “AKRVVFVTVGTTSFDALVKAVVSQNVKDELQKRGFTHLLIQMGRGIFFPTKCDGADGSLVVDYFTFSSSIADYIRSASLVISHAGSGSIFETLKLGKPLIVVVNEDLMDNHQCELAEALEERKHLYYTRPHSLHQTLTKMELGSLVQYTPGDGTPVARIIDRFLG” it is “failed”. As for “MSTDSVRSSTTGGSASGARTFCSLADLSTKKCVPCNAKDLRAMTEQSAQDLLQKVAGWDLANDNDTLKLHRSWRVKSFTKGLDFFQRVADIAESEGHHPDLHLVGWNNVKIEIWTHAIGGLTENDFILAAKINELQVEDLLRKKKVAK”, the protein production result is “failed”. Turning to “MYKLISPHLSGHAMWKEALEEFGSGPIHGSGYFENYLPIDYSEAGFHHYLKERTDAADPSVPPPEGFVHCSYFWIVDDDDVLVGFLALRHELNQHLLEVAGHIGYGVRPSARRKGAATAALKLGVHEAQALGIDKVLLCVAGDNEASRNVIEKCGGVYESTIRGMRRYWIATDS”, the protein production entry is reported as “failed”.

Regarding “MDPERDALRIALYYALFSILWILSSDYLVALMFQPHVMVRLSVLKGSLFIILTSLLLYFLLKLYLRSLTDKERALRISEHKFRSLFMELPLGVVLMDTYGRILESNPAMGRFHGDSLDGMLIGEIHPDLEPGPDREFMVRMDGRWLRVVITRIEGGFLGIFEDLTDIKNSEEAARRSLEANRTLLAELHHRVKNNLQIISSLISIQSSKMPREHAEIMRSLQLRIKSIAVIHEMLLSSPESSSISFASYVSGLTGYLRDMYQSAAEFELDVPDVEFNIETAVPLGLIVGELVSNSLRHAFTDGGTIRISLEARDDGFILVVADNGGAFPITSAFRNQPASAWSLLRIW”, the protein production entry was “failed”. Next, “MKVAVLDFGKTNSKLFVFGQDGGILDERRTQPKWTHQDGFSVLDEAALHDWALGAVTEAVENHGVEGVMVSGHGCTFALVDDAALTHPILDYEQEPPAEIAARIDHRIPDFAETFSPRLPLGFNYGRHMLWVQEVDPDAFAAAKSILGYPQYWSWRLGGRPVSEVSYLGCHSHLWAPRSQDFSSLVDAEGWRGQMPAFARAGAVIGERRLGSSSRPIAIHNGVHDSNAALHAYRLEHHHHHH”: “not failed”; “MTDESDSTAHVSCIIPVYNDSVGIKNTLRSVVGQEYHGYDVYVVDNGSTDGSRRRVRNCAAESDDIQLLVEDEVQGSYAARKTGVQNAESDVLAFLDADETVDEDWLETALGAMQEQDVDYLGCNVELTCPEDTLVGRYNARTGFPVEEYLEDQNYAPTCALLVRRKVFEDVGPFDARLISGGDREFGDRVHDAGYEQGYAENATVYHPARTSLESLAKKNFRVGRGFCQKQRYYPERYGKPGIPPTPSGPSGGDDGDEPDASLTRLAFTLLSIAMLACRGVGYYYEFVVGEENDDIPAPTSLEHHHHHH”: “failed”. The entry for “SLRREMQEILPGLFLGPYSSAMKSKLPVLQKHGITHIICIRQNIEANFIKPNFQQLFRYLVLDIADNPVENIIRFFPMTKEFIDGSLQMGGKVLVHGNAGISRSAAFVIAYIMETFGMKYRDAFAYVQERRFCINPNAGFVHQLQEYEAIYLAK” is “not failed”; for “MSEILRQPSVLLFLTLAVYALAIIVRTRTGNIFCNPVLVSTIVLIAYLKILGIDYAVYHNAAQFIDFRLKPAVVVLAVPLYQNRRKIFNQWLPVIVSQLAGSVTGIVTGMYFAKWLGAEREVVLPLASKSVTNPIAIEITRSIGGIPAITAATVIIAGLVGQIAGYKMLKNTVVMPSSVGMSLGTASHAMGIAASLERSRRMAAYAGMGLTFNGVLTALIAPLLIPVLGF” it is “failed”; for “MGTKRIGILTSGGDCPGLNAVIRAVVKASALKGWEVYGIPYGTDGFVEVAHGKYQAEDLLLTKHGYALPGMLKGLDVLQFLSGSVLGSLSKGHPEQPAIAEAILKGYAILDLEALIVIGGDGSLDIIYDLAQKGNWHIIAIPKTIDNDVPFTDLAVGFSTAVDIVTQALYDLTFTAASHERIIIVQVMGRDAGHLTLHAGIAGGADIILIPEITPCLTSEIIRNCCYQLMNLRKSGRHFALIVISEGVHDQNNKKNKHIADYLAEEISETSQHLCDIKDPAFCDLISLDIRATTLGHLQRSGTPLSFDRLLATVFGIRAVELIEQEIYDQVVIWRSGKVEHADLKPIISIIKECHQENRCPFPVDRDGFMVKTAKSLGIYLGED” it is “failed”. As for “MSRSALSFAVFLAVVLSILGGMHAYLWLRLVRDPGLPEPWRRTGTVLLALLAVAIPVGMFSVRLASGWAARWLPVAAFTWLGLAFILFCAVAAIDLARLSAQLALFMGDWLRQVPDPPADPGRRLFVARAVAGGAVIAAGGSAALAFRSATGPAEIHEVAVRLDRLPPALSGLTIAQISDLHVGPAIREREVRRVVEQTNALRPDVVAITGDLVDGSVRELGHAVAELARLRARHGVFFVTGNHEYYSGVDAWVAELQRLGIRVLRNERVTVGDAGASIDLAGVDDWSSGQFGNGHGMNLPRALDGRDPDRSLVLLAHQPRAIGEAVRAGVELQLSGHTHGGQIFPFNLLVRAAYPYVKGLYPHAEGSAHGQIFVSRGTGYWGPPMRLGSPPEIARIVLT”, the protein production result is “failed”.
